Results taken from US20220177587A1, “METHODS AND USES OF VARIANT CD80 FUSION PROTEINS AND RELATED CONSTRUCTS” (Alpine Immune Sciences, Inc., priority 2018, published 2022).
Changes are numbered by the printed parent chain. Numbers in names are those of the source.

B1: A91G, S129P (protein)
chain: VIHVTKEVKEVATLSCGHNVSVEELAQTRIYWQKEKKMVLTMMSGDMNIWPEYKNRTIFDITNNLSIVILALRPSDEGTYECVVLKYEKDGFKREHLAEVTLSVKADFPTPSISDFEIPTSNIRRIICPTSGGFPEPHLSWLENGEELNAINTTVSQDPETELYAVSSKLDFNMTTNHSFMCLIKYGHLRVNQTFNWNTTKQEHFPDN
B2: I118T, C128R (protein)
chain: B1 chain with G91A, I118T, C128R, P129S
modifications: CD80 v118 ECD
B3: Y31H, S129P (protein)
chain: B1 chain with Y31H, G91A
modifications: CD80 v106 ECD
B4: Q27R, R29C, M42T, S129P, E160G (protein)
chain: B1 chain with Q27R, R29C, M42T, G91A, E160G
modifications: CD80 v119 ECD
B5: S129P, T154A (protein)
chain: B1 chain with G91A, T154A
B6: I69T, L70Q, A91G, T120S (protein)
chain: B1 chain with I69T, L70Q, T120S, P129S
modifications: CD80 v105 ECD
B7: R29D, Y31L, Q33H, K36G, M38I, T41A, M43R, M47T, N48D, F59L, E81V, L85R, K89N, A91T, F92P, K93V, R94L, I118V, T120S, I127T, T130A, H188D (protein)
chain: VIHVTKEVKEVATLSCGHNVSVEELAQTDILWHKEGKIVLAMRSGDTDIWPEYKNRTILDITNNLSIVILALRPSDEGTYVCVVRKYENDTPVLEHLAEVTLSVKADFPTPSISDFEVPSSNIRRITCSASGGFPEPHLSWLENGEELNAINTTVSQDPETELYAVSSKLDFNMTTNHSFMCLIKYGDLRVNQTFNWNTTKQEHFPDN
B8: H18R, R29D, Y31L, Q33H, K36G, K37E, M38I, T41A, M43R, M47T, L70Q, E81V, L85R, K89N, A91T, F92P, K93V, R94L, I118V, T120S, T130A, K169E, H188D (protein)
chain: B7 chain with H18R, K37E, D48N, L59F, L70Q, T127I, K169E
B9: R29D, Y31L, Q33H, K36G, M38I, T41A, M43R, M47T, E81V, L85R, K89N, A91T, F92P, K93V, R94L, S21P, P74L, Y80N, D90N, T130A, N149S, E162G (protein)
chain: VIHVTKEVKEVATLSCGHNVPVEELAQTDILWHKEGKIVLAMRSGDTNIWPEYKNRTIFDITNNLSIVILALRLSDEGTNVCVVRKYENNTPVLEHLAEVTLSVKADFPTPSISDFEIPTSNIRRIICSASGGFPEPHLSWLENGEELSAINTTVSQDPETGLYAVSSKLDFNMTTNHSFMCLIKYGHLRVNQTFNWNTTKQEHFPDN
B10: R29D, Y31L, Q33H, K36G, M38I, T41A, M43R, M47T, E81V, L85R, K89N, A91T, F92P, K93V, R94L, I118T, T130A, N149S (protein)
chain: B9 chain with P21S, L74P, N80Y, N90D, I118T, G162E
B11: R29D, Y31L, Q33H, K36G, M38I, T41A, M43R, M47T, E81V, L85R, K89N, A91T, F92P, K93V, R94L, V22A, I118T, T130A, N149S (protein)
chain: B9 chain with P21S, V22A, L74P, N80Y, N90D, I118T, G162E
B12: V22A, R29D, Y31L, Q33H, K36G, M38I, T41A, M43R, M47T, E81V, L85R, K89N, A91T, F92P, K93V, R94L, V68M, T130A (protein)
chain: B9 chain with P21S, V22A, V68M, L74P, N80Y, N90D, S149N, G162E
B13: R29D, Y31L, Q33H, K36G, M38I, T41A, M43R, M47T, E81V, L85R, K89N, A91T, F92P, K93V, R94L, H18L, V68A, T130A, N149S, T154I (protein)
chain: B9 chain with H18L, P21S, V68A, L74P, N80Y, N90D, T154I, G162E
B14: R29D, Y31L, Q33H, K36G, M38I, T41A, M43R, M47T, E81V, L85R, K89N, A91T, F92P, K93V, R94F, T130A, N149S, K169I (protein)
chain: B9 chain with P21S, L74P, N80Y, N90D, L94F, G162E, K169I
B15: R29D, Y31L, Q33H, K36G, M38I, T41A, M43R, M47T, E81V, L85R, K89N, A91T, F92P, K93V, R94L, I118V, T120S, T130A, K169E, M174T (protein)
chain: B7 chain with D48N, L59F, T127I, K169E, M174T, D188H
B16: T28A, R29D, Y31L, Q33H, K36G, M38I, T41A, M43R, M47T, E81V, L85R, K89N, A91T, F92P, K93V, R94L, V104L, T130A, N149S (protein)
chain: B9 chain with P21S, T28A, L74P, N80Y, N90D, V104L, G162E
B17: R29D, Y31L, Q33H, K36G, M38I, T41A, M43R, M47T, E81V, L85R, K89N, A91T, F92P, K93V, R94L, I118T, T130A, N149S, K169I, Q193L (protein)
chain: B9 chain with P21S, L74P, N80Y, N90D, I118T, G162E, K169I, Q193L
B18: H18L, R29D, Y31L, Q33H, K36G, M38I, T41A, M43R, M47T, E81V, L85R, K89N, A91T, F92P, K93V, R94L, L97R, N149S, H188Q (protein)
chain: B9 chain with H18L, P21S, L74P, N80Y, N90D, L97R, A130T, G162E, H188Q
B19: R29D, Y31L, Q33H, K36G, M38I, T41A, M43R, M47T, E81V, L85R, K89N, A91T, F92P, K93V, R94L, H18L, P74L, Y80N, T130A, R190S (protein)
chain: B9 chain with H18L, P21S, N90D, S149N, G162E, R190S
B20: R29D, Y31L, Q33H, K36G, M38I, T41A, M43R, M47T, E81V, L85R, K89N, A91T, F92P, K93V, R94L, H18L, V68M, T130A (protein)
chain: B9 chain with H18L, P21S, V68M, L74P, N80Y, N90D, S149N, G162E
B21: R29D, Y31L, Q33H, K36G, M38I, T41A, M43R, M47T, E81V, L85R, K89N, A91T, F92P, K93V, R94F, N64S, I118T, T130A, N149S, K169I (protein)
chain: B9 chain with P21S, N64S, L74P, N80Y, N90D, L94F, I118T, G162E, K169I
B22: R29D, Y31L, Q33H, K36G, M38I, T41A, M43R, M47T, E81V, L85R, K89N, A91T, F92P, K93V, R94L, I118T, T130A, N149S, K169I (protein)
chain: B9 chain with P21S, L74P, N80Y, N90D, I118T, G162E, K169I
B23: H18L, R29D, Y31L, Q33H, K36G, M38I, T41A, M43R, M47T, E81V, L85R, K89N, A91T, F92P, K93V, R94L, L97R, T130A, N149S (protein, UniProt P33681 35-288, looked up, variant H18L R29D Y31L Q33H K36G M38I T41A M43R M47T E81V L85R K89N A91T F92P K93V R94L L97R T130A N149S)
T-lymphocyte activation …: VIHVTKEVKEVATLSCGLNVSVEELAQTDILWHKEGKIVLAMRSGDTNIWPEYKNRTIFDITNNLSIVILALRPSDEGTYVCVVRKYENDTPVLEHRAEVTLSVKADFPTPSISDFEIPTSNIRRIICSASGGFPEPHLSWLENGEELSAINTTVSQDPETELYAVSSKLDFNMTTNHSFMCLIKYGHLRVNQTFNWNTTKQEHFPDNLLPSWAITLISVNGIFVICCLTYCFAPRCRERRRNERLRRESVRPV

What follows are molecules tested on human pan T cells (assay: Anti-CD3 coimmobilization assay, IFN-gamma). Conditions: Table E34; culture supernatant, 3 days.
Assay type: cell-based
Protocol: Costimulatory bioactivity of CD80 fusion variants was determined in anti-CD3 coimmobilization assays. 1 nM or 4 nM mouse anti-human CD3 (OKT3, Biolegends, USA) was diluted in PBS with 1 nM to 80 nM rCD80.Fc variant proteins. This mixture was added to tissue culture treated flat bottom 96-well plates (Corning, USA) overnight to facilitate adherence of the stimulatory proteins to the wells of the plate. The next day, unbound protein was washed off the plates and 100,000 purified human pan T cells (BenTech Bio, US) or human T cell clone BC3 (Astarte Biologics, USA) were added to each well in a final volume of 200 μl of Ex-Vivo 15 media (Lonza, Switzerland). Cells were cultured 3 days before harvesting culture supernatants and measuring human IFN-gamma levels with Duoset ELISA kit (R&D Systems, USA) as described above.
In the case of B1, the “Anti-CD3 IFN-gamma Coimmobilization Assay” value is reported as 0 pg/mL.
In the case of B2, the “Anti-CD3 IFN-gamma Coimmobilization Assay” value is reported as 122 pg/mL.
B3 was tested, and the “Anti-CD3 IFN-gamma Coimmobilization Assay” value was 76 pg/mL.
In the case of B4, the “Anti-CD3 IFN-gamma Coimmobilization Assay” value is reported as 139 pg/mL.
B5 was tested, and the “Anti-CD3 IFN-gamma Coimmobilization Assay” value was 156 pg/mL.
With B6 the “Anti-CD3 IFN-gamma Coimmobilization Assay” value was 509 pg/mL.
In the case of B7, the “Anti-CD3 IFN-gamma Coimmobilization Assay” value is reported as 230 pg/mL.
In the case of B8, the “Anti-CD3 IFN-gamma Coimmobilization Assay” value is reported as 305 pg/mL.
For B9, the “Anti-CD3 IFN-gamma Coimmobilization Assay” value was 54 pg/mL.
In the case of B10, the “Anti-CD3 IFN-gamma Coimmobilization Assay” value is reported as 89 pg/mL.
B11 was tested, and the “Anti-CD3 IFN-gamma Coimmobilization Assay” value was 124 pg/mL.
B12 was tested, and the “Anti-CD3 IFN-gamma Coimmobilization Assay” value was 96 pg/mL.
For B13, the “Anti-CD3 IFN-gamma Coimmobilization Assay” value was 132 pg/mL.
With B14 the “Anti-CD3 IFN-gamma Coimmobilization Assay” value was 114 pg/mL.
With B15 the “Anti-CD3 IFN-gamma Coimmobilization Assay” value was 141 pg/mL.
With B16 the “Anti-CD3 IFN-gamma Coimmobilization Assay” value was 116 pg/mL.
In the case of B17, the “Anti-CD3 IFN-gamma Coimmobilization Assay” value is reported as 130 pg/mL.
For B18, the “Anti-CD3 IFN-gamma Coimmobilization Assay” value was 125 pg/mL.
In the case of B19, the “Anti-CD3 IFN-gamma Coimmobilization Assay” value is reported as 8 pg/mL.
With B20 the “Anti-CD3 IFN-gamma Coimmobilization Assay” value was 51 pg/mL.
In the case of B21, the “Anti-CD3 IFN-gamma Coimmobilization Assay” value is reported as 30 pg/mL.
In the case of B22, the “Anti-CD3 IFN-gamma Coimmobilization Assay” value is reported as 101 pg/mL.
With B23 the “Anti-CD3 IFN-gamma Coimmobilization Assay” value was 96 pg/mL.
